Measured values from patent publication US20040058457 (published 2004).

B1: NZ-23 420 bp fragment with 23 tandem Zif268 sites separated by NRE sites (dsDNA)
DNA 1: AAGGGTTCAGCGTGGGCG
DNA 2: CGCCCACGCTGAACCCTT
B2: NZ-23 (as added to Au-GSH/GST-Zif268 assay) (dsDNA)
DNA 1: AAGGGTTCAGCGTGGGCG
DNA 2: CGCCCACGCTGAACCCTT

How the values were obtained:
GST-Zif268 (PED107) [1] = molecular target: T1, GST-Zif268 (PED107) (mouse, UniProt P08046 SEQ:1-90); test: EMSA; 1% agarose gel, RT 10 min, 0-4 uL of 1 mg/mL protein; shorter DNA trapped in well with increasing protein
GST-Zif268 (PED107) [2] = molecular target: T1, GST-Zif268 (PED107); test: EMSA; protein bound to Au-GSH nanoparticles; DNA co-migrated with Au particles; 1% agarose, 1xTAE, RT 10 min

| Binder | binding result (GST-Zif268 (PED107) [1]) | binding result (GST-Zif268 (PED107) [2]) |
| --- | --- | --- |
| B1 | binds | – |
| B2 | – | binds |
